Reference: the DeepSol protein solubility set

Experiment: soluble on expression in E. coli; label from the status in PepcDB or PDB records

Sequence | soluble on expression in E. coli
MNADTADEEITKLLEFLIEQTKDAFEPMRALAVFESFGQLEEDPLDRKTYHYRFHQKIAPNMDSWNNYSIESRIRLMFALAGRVRDNFLESIQSQGTVELDEKNRICEYISNDGTLTLKGDHSDSARWARRITSTTNPTKSAAFAEKFMNFLVEKTKNVVEPVSVGGIYEEFSQIDGFGLSPAAYRTRFHINIVPEINEWNSYSIEERIRLLMALGALVPEDFLERIEAEGTVDLDEKGRILKYSSNDGNLNLDKRNIATANRRNSTAAHRKRSLDRDSESGSAKNARAVKSEPKSKPQSDLHYSSESDTDDVEFVESLPGKPKLEPIDYDYDQYFNRDVSYNNYDQEEVENRNVRLSIASSMPSLESNVIKLNDFLKEVRKFLCFLEISELDELKHQIKESVVQTAGANENLEISDLCTLLDAFFFSINQKTRSTIPNDSTMPVNVFLIKFKCFLLGMESPEFLDLQEKVQRKLDESDITEKILQLSDIQHAVQYLFFSVSH | not soluble
MASNVSLTGLAHDLKQRAENHPPIRIGLIGCGEMGTDLLSSIAHMDGITVAAVATRTPSRIFDAARLAYGEEGHVREVENASALTRTIEKGLIAATNDIDLVLRHEQIDIIVDATGYPEAGAEIGFKALENNKNLVMMNVEADVTIGAYLKHEAEKQGLIYTLGAGDEPTSCMELIEFVSALGHKI | not soluble
MAHHHHHHMWSPSNKRDSLINSDDTFFPFLFHFPGSHPRQMLSSFFASRSRGSWIPAVDISEQDDGYILVADLPEVKKEDLRVYTESSSIICISGNRKHILKQDEHQLLVAERGAGRFERCFDLPTSVDSSKIKASFNDQQLNLSIPKLRNSKSGASNSVTID | soluble
MASMAAELRPSDGGSSLHMLDSLLMMGLSSGGGVGGGGSSQSQILDSAGAAELAALLLPQHSNDPLHLMSTGDAALGLAGPMAAAEHHQHHPHHQHHSVPATAGFPSQTPPPPLFSNATAGAAPATRVRAAGSCGSGGVAGGTTSHSSEDGVFHSADPHHHHQQHLQQPQPQQQQQQQQQPQHQQQQQQQQQQQPQQPQFHHHQPQQHQAQQAVAATAPAAAADHLFLPPAAAGAAGQQQAGWGAATGAHLFHSDAPNRPNGPKTPTNRNGYAMKPPPPAAAAAVMSGHAMAASGVVAGRGGGGGGCDAEEDELTFAAAAAAEVSSDDEVMGGRGGAVMGRAAVGGFRTPAPAPASAGAAVNVAAAAPAAPAGTWVPKGKPAVEVSAWAPAPAAPVAAAAAAAVAVSPTVAAFAAAPVVEAVALVRSQQRQEQEHQLVQVAAAEQQDQQQAKRPVRSSRRRAQESQQAAAEAQQAAQQAAAAQQQQQHTGSGNIVGDKQGKPQGGLQQGRPVATQPSPPPPAVATAAAAAAATAPVATAPVATVATAATADTMPQRLTAVQQHEAYPAVVRGTLDVRKACLPRFPLVAREQAEAELQSVATAALQQAAAAPGASAAVTAAAAAAAAAATAAGEGKAGEGKAATARRGGRGAAEAEAAAALPAVGASGNPGLDEAMGAYVRVAALYGDEAAAAVAECESLMADFDNKLQLGNLATTFAAAASPTAAASGRARGGARSGGVGGGGTKRVASGANASGANSSGMSGGGGGDSAGAEAAAGDEMEWAPGATSVDTATGGADDEDGEEEEGQQPGGAAAAAAVAAAGGEASQLAASIAATYGSQLVQVAASLAQRPKVGKLPPAATQLLKGWWDDNFVWPYPSEEDKKQLGEAAALNNTQINNWFINQRKRHWHKHFPNRRPPSTREEAERLLRAAGAI | not soluble
MESVAAESAPAPENEHSQETPESNSSVYTTFMKSHRCYDLIPTSSKLVVFDTSLQVKKAFFALVTNGVRAAPLWDSKKQSFVGMLTITDFINILHRYYKSALVQIYELEEHKIETWREVYLQDSFKPLVCISPNASLFDAVSSLIRNKIHRLPVIDPESGNTLYILTHKRILKFLKLFITEFPKPEFMSKSLEELQIGTYANIAMVRTTTPVYVALGIFVQHRVSALPVVDEKGRVVDIYSKFDVINLAAEKTYNNLDVSVTKALQHRSHYFEGVLKCYLHETLEAIINRLVEAEVHRLVVVDEHDVVKGIVSLSDILQALVLTGGEKKP | soluble
MGSDKIHHHHHHMTKQLLVLQSDFGISDGAVSAMYGVINSVSKDLQIYDLTHQIPQFNIWEASYRLLQTVTYWPEDTIFVSIVDPGVGSKRRSVVVLTEDGHYIITPDNGTLTHIAHYGTIKEVRLIDEEKNRLPKSGASHTFHGRDIFAYTAARLAAGVINFEDIGPSATPDSIVSLSLSDSYLEGEQAFGTIDIIDRPFGNLWTNIRRTDFLQLGANYGDSIEVLIKHHDRVVYKNFVTYSRSFADLRIGEALIYVNSLDNLGLGINQGSFVDAYSVGTGTSWKVTLKKV | not soluble
QVSLRESGGGLVQPGRSLRLSCTASGFTFRHHGMTWVRQAPGKGLEWVASLSGSGTKTHFADSVKGRFTISRDNSNNTLYLQMDNVRDEDTAIYYCAKAKRVGATGYFDLWGRGTLVTVSSASTKGPSVFPLAPSSKSTSGGTAALGCLVKDYFPEPVTVSWNSGALTSGVHTFPAVLQSSGLYSLSSVVTVPSSSLGTQTYICNVNHKPSNTKVDKKAEP | soluble
MGSDKIHHHHHHMLSRTADHLFWMARYTERAENTARMLDVNYQTSLLPQSAEVAEQGWWAMLDISELTNAFDHKYGLLTRDDVIDFMVRDMTNPSSIMSCLRAARENARAVRGSLTTEVWETVNTTWLDVQRMIADGELQEDPSRFFEWVKFRSHLARGVQFGTMLKDDAFHFMRLGTFLERADNTARILDVKFQASGSDDSDPNREQNDFYHWAAVLRSVSGFEVYRKVYRAVITPQRVAELLILRPDMPRSLVSSMDEVVAILAMVCNHQSGETERQAGKLHADLKFARIDDIFAVGLHAFLTSFLERIGDIGNGISRDFLVPLQAA | not soluble
MNFHVMLTSSHETSFNFVVLLRANSKMKQQRNACRSCRLKECIKVGMNPRAVQGDIDTASTSSASPNLVSVEMHPYTNFREVECQTEVSTISSHPTSPSTLPFVSSGSSICSVSSSCSSVSTVYSNCLAMLPPNPSLPKYDYLLASLSRIFERVDEHAPEPLPNTYSFEHAFYNPHLICNRTKLTPTGERIATLPEVLQDFRRIFVLFTDVLSILPEFSRLDESDRMVLAKSRFSFFYWWLTCCWTAKVGCPGVCYANGAYHPSDKRQQAFPDVKGVTELSVETVSKPLANINITDAEMLVGSVFAIFYEYPLPPKVSYASTHILNEARDLYTQCMITVSPYSQLEAKSASRLAEISLIFSSITNLKYLTSDNIELSDVLHVMEVDQLITEAFDVHRPME | not soluble
MGSDKIHHHHHHMKNLLDLSYEELVTEITNLGLERYRADQILDWVFDKKVNNFDEMTNLSKKHRALLKEHFSISFLKLLDKKVSRIDGTTKFLWELEDGNTIESVMLFHPDRITACISTQVGCPVKCIFCATGMSGFVRNLTTGEIVAQILSMEKEEKKKIGNVVYMGMGEPLLNYENTIKSIRILNHKKMGNIGIRRITISTVGIPDRIIQLAEEGLDVKLALSLHAPTNFKRDQLVPLNKKYSIEEILNAVKIYQRKTGNRVTIEYVLIRGINDEISDAKKLAEILRNMKVFVNLIPVNPTVEGLRRPSRERLLTFKRILLENGIEAEIRREKGTDIEAACGQLRLKRIKSRS | not soluble
MLLSVPLLLGLLGLAAADPAIYFKEQFLDGDAWTNRWVESKHKSDFGKFVLSSGKFYGDLEKDKGLQTSQDARFYALSAKFEPFSNKGQTLVVQFTVKHEQNIDCGGGYVKLFPSGLDQKDMHGDSEYNIMFGPDICGPGTKKVHVIFNYKGKNVLINKDIRCKDDEFTHLYTLIVRPDNTYEVKIDNSQVESGSLEDDWDFLPPKKIKDPDAAKPEDWDERAKIDDPTDSKPEDWDKPEHIPDPDAKKPEDWDEEMDGEWEPPVIQNPEYKGEWKPRQIDNPDYKGTWIHPEIDNPEYSPDANIYAYDSFAVLGLDLWQVKSGTIFDNFLITNDEAYAEEFGNETWGVTKAAEKQMKDKQDEEQRLKEEEEDKKRKEEEEAEDKEDDDDRDEDEDEEDEKEEDEEESPGQAKDEL | soluble
MGSDKIHHHHHHACDNSDRIETETQANGVLLNFNASTIDATTTETRSFVPIEGFAKNEYIFGMSVTKDNASRGEIFEGSRNLKATMSRPSGDAPWNWEFSNNASGTVVTPRGPEGKPLRVIAYYPAIAGTENFTDGIPFDFTQTNNPQQKEILYNTNTSYTIPSSGGSDKVTIPLKFQHAYSWISIKVTKSVDKGSHKLSGVSIDNLSGGWIKNKGKINPATGMAMQGAIQGPIGEVRTAEVLDPSGDTATPIIYDFLVPAFMDRNVKDDDLVFTLIIDGKKEIFSLGREHLNNDGDTYGFKQGYVNTYNVEFNNSSLNMRLLNWTSTRIDGDFGQNVTNPTNYQEMSFYYAEDNGGWTTANGKVFPPKYKDLPAGDRRYYNYLTTVKYGGNGEYVPAKPVTDPPPPKGIIIEDDANVATQEPACRLFQMTTKDVSIEPVPWEDEMGQLVAKELCRKYNGGGFKDWRLPRASELRALLVYAIYGAGTKQFINLKLTNDVNREKLYWTGTEESEDKAWAMLYYDDNTLVGRGPNISAQDKSTRLSVRCIRQLQ | not soluble
MVSKELVVCHLYGNLLNTYGDNGNLLMLKYLTEKMGVTFRSEIISIYEPFDPEKYDLVFVGGGQDFEQLIISEDIQNKKEALTSYIENDGVLLAICGGYQLLGHYYVGAQGEKIKGIGALDHYTLSQDNNRFIGDIEIYNEEFDETYYGFENHNGMTFLGEGERPLGTVKQGKGNNGQDNGEGVVYKNVFGSYFHGPILARNKNLGIRLIRTALEKKYGEPIAIPETLYK | not soluble
MADPNGFLNYPRNDNPYRELAERIKDFAELQVPLSTEERQKQAARCMHCDVPFCHQGIFYGGKRAVSGCPNDNHIPEWNDLIYRGLQRKAYERLILTNPFPEFTGRVCPAPCEKSCAEALNGAGVTIKDNERFLGDLGNDEGWVAEIGKAAEPTGYKIAIIGSGPAGLSAAWRLNQLGHSVTVFEKSDRLGGLLMYGIPNMKLDKKVVQKRIDLMTELGVTFVTNTEIGKTISYEDLSVNFDRIILAIGAGIPRDLNISGREAVGIRFAIDFLTETTKTVLEEGEDNISQSLKGKKVVVIGGGDTGNDCIGTAVRLGAASVSQLEITPSLPTDRLDNNPWPEWPMTLRAGYGQKEAEFVGNTDLITYQMTATAFQTNAEGQLTGLKVAKVGPDFKALEGTEQVIEADLVLLAMGFVGTDTGLLDKFGIQEIYDDYRTNNDKVLVAGDARRGPSLVIWAIREGRKTAEIVDEQLIKVATALEHHHHHH | soluble
MGSDKIHHHHHHMKNLLVVLLSLVSVLSFSVSLNDVLQTALASSTDYQIAQISLESATMDYEKAKLEATNKRSELSAELSYYNNLQSYRNSLKSAYQDVLGRIFNLLTADLSYEIAQLNFENAQEDYKTSQELFKKNLISENDLKDSELTLEEASNNLLSAQKDLEEAQKDYEEIFSVEVSEIELPLIDYQNLVGEDEYLDNLSSVKIAELNMKIAEYDLNNLSASASKYEQKKAELNYKKSKMNYDEALKEAKDSYKSTLDSLEIAFLNLKVLKEKIELNENILKDYQERYEKGLISKKELNTQKINLLNIKKNYLNSLRSYYISIVNLLIDAGKEVSF | not soluble
MLMPRQTTPPLSLPLVGGGRFDLSAETSTRWTLICFYRGLHCPICATYLKELEKRVADFAERGVACVAVSSDSEERAQAMAEKVGGGTLRFAYDLPLAEARDWGLYISTSRGKTSIGIEEPALFSEPGLFLVTPERTLYYGAVQTMPFVRPHFSELVAALDFAIPNNYPARGEYTGAV | soluble
MSLTTRVIALDLDGTLLTPKKTLLPSSIEALARAREAGYQLIIVTGRHHVAIHPFYQALALDTPAICCNGTYLYDYHAKTVLEADPMPVNKALQLIEMLNEHHIHGLMYVDDAMVYEHPTGHVIRTSNWAQTLPPEQRPTFTQVASLAETTQQVNAVWKFALTHDDLPQLQHFGKHVEHELGLECEWSWHDQVDIAHGGNSKGKRLTKWVEAQGWSMENVVAFGDNFNDISMLEAAGTGVAMGNADDAVKARANIVIGDNTTDSIAQFIYSHLIEGHHHHHH | not soluble
